Data: patent US20170159025A1

How the values were obtained:
[1] = target: human epidermal growth factor receptor (EGFR) (human) (UniProt P00533); assay: cell-based or functional assay
[2] = target: EGFRvIII (UniProt P00533); assay: cell-based or functional assay

chimeric antigen receptor 806-28BBZ, scFv(EGFR)-CD28-CD28-CD137-CD3 zeta (from UniProt P01732 138-182; P10747 153-220; Q07011 214-255; P20963 52-164)
Cytotoxicity % (LDH release), BxPC-3 cells, effector to target 1:1 [1]: 49%
Cytotoxicity % (LDH release), BxPC-3 cells, effector to target 1:3 [1]: 24%
Cytotoxicity % (LDH release), BxPC-3 cells, effector to target 3:1 [1]: 70%
Cytotoxicity % (LDH release), CFPAC-1 cells, effector to target 3:1 [1]: 40%
Cytotoxicity % (LDH release), PANC-1 cells, effector to target 1:1 [1]: 28%
Cytotoxicity % (LDH release), PANC-1 cells, effector to target 3:1 [1]: 65%
Cytotoxicity % (LDH release), U87-EGFR cells, effector to target 1:1 [1]: 49%
Cytotoxicity % (LDH release), U87-EGFR cells, effector to target 1:3 [1]: 29%
Cytotoxicity % (LDH release), U87-EGFR cells, effector to target 3:1 [1]: 98%
Cytotoxicity % (LDH release), U87 cells, effector to target 1:1 [1]: -14%
Cytotoxicity % (LDH release), U87 cells, effector to target 1:3 [1]: -25%
Cytotoxicity % (LDH release), U87 cells, effector to target 3:1 [1]: -2%
Cytotoxicity % (LDH release), U87-EGFRvIII cells, effector to target 1:1 [2]: 41%
Cytotoxicity % (LDH release), U87-EGFRvIII cells, effector to target 3:1 [2]: 81%
Cytotoxicity against target cells % (LDH release), U87-EGFRvIII cells, effector to target 5:1, 20 h [2]: 85%

chimeric antigen receptor 806-Z, scFv(EGFR)-CD8-CD3 zeta (from UniProt P01732 138-203; P20963 52-164)
Cytotoxicity % (LDH release), BxPC-3 cells, effector to target 1:1 [1]: 24%
Cytotoxicity % (LDH release), BxPC-3 cells, effector to target 1:3 [1]: 14%
Cytotoxicity % (LDH release), BxPC-3 cells, effector to target 3:1 [1]: 44%
Cytotoxicity % (LDH release), CFPAC-1 cells, effector to target 1:1 [1]: 35%
Cytotoxicity % (LDH release), CFPAC-1 cells, effector to target 1:3 [1]: 12%
Cytotoxicity % (LDH release), CFPAC-1 cells, effector to target 3:1 [1]: 43%
Cytotoxicity % (LDH release), PANC-1 cells, effector to target 1:1 [1]: 34%
Cytotoxicity % (LDH release), PANC-1 cells, effector to target 1:3 [1]: 18%
Cytotoxicity against target cells % (LDH release), U87-EGFRvIII cells, effector to target 5:1, 20 h [2]: 56%
cytotoxicity against tumor cells U87-EGFRvIII (LDH release) [2]: 55.5%
